Laboratory results: patent publication US20150374794A1 (Novo Nordisk, published 2015)
Numbered stars: 1 amine (or outer) side, 2 acyl side, 3 side chain; on linkers, the order of the positions; unused ones are H or OH. Square brackets hold non-standard residues; d marks the D form. Side chains are listed from the residue outwards. Ends that are not written are not given here. * marks the point of attachment. C18 diacid = O=C(O)CCCCCCCCCCCCCCCCC(=O)*; γGlu = O=C(O)[C@H](CCC(=O)[*:2])N[*:1]; Ac4c = NC1(C(=O)O)CCC1; AEEA = NCCOCCOCC(=O)O; Aib = CC(C)(N)C(=O)O

B1: N^ε28-[(4S)-4-carboxy-4-[[(4S)-4-carboxy-4-[[2-[2-[2-[[2-[2-[2-[[(4S)-4-carboxy-4-(17-carboxyheptadecanoylamino)butanoyl]amino]ethoxy]ethoxy]acetyl]amino]ethoxy … (peptide)
peptide: H[Aib]QGTFTSDLSKYLESKAAREFVQWLLK([γGlu-γGlu-AEEA-AEEA-γGlu-C18 diacid])T-NH2
modifications: N-terminus assumed
SMILES: CC(C)C[C@H](NC(=O)[C@H](Cc1ccc(O)cc1)NC(=O)[C@H](CCCCN)NC(=O)[C@H](CO)NC(=O)[C@H](CC(C)C)NC(=O)[C@H](CC(=O)O)NC(=O)[C@H](CO)NC(=O)[C@@H](NC(=O)[C@H](Cc1ccccc1)NC(=O)[C@@H](NC(=O)CNC(=O)[C@H](CCC(N)=O)NC(=O)C(C)(C)NC(=O)[C@@H](N)Cc1c[nH]cn1)[C@@H](C)O)[C@@H](C)O)C(=O)N[C@@H](CCC(=O)O)C(=O)N[C@@H](CO)C(=O)N[C@@H](CCCCN)C(=O)N[C@@H](C)C(=O)N[C@@H](C)C(=O)N[C@@H](CCCNC(=N)N)C(=O)N[C@@H](CCC(=O)O)C(=O)N[C@@H](Cc1ccccc1)C(=O)N[C@H](C(=O)N[C@@H](CCC(N)=O)C(=O)N[C@@H](Cc1c[nH]c2ccccc12)C(=O)N[C@@H](CC(C)C)C(=O)N[C@@H](CC(C)C)C(=O)N[C@@H](CCCCNC(=O)CC[C@H](NC(=O)CC[C@H](NC(=O)COCCOCCNC(=O)COCCOCCNC(=O)CC[C@H](NC(=O)CCCCCCCCCCCCCCCCC(=O)O)C(=O)O)C(=O)O)C(=O)O)C(=O)N[C@H](C(N)=O)[C@@H](C)O)C(C)C
B2: N^ε28-[(4S)-4-carboxy-4-[[(4S)-4-carboxy-4-[[2-[2-[2-[[2-[2-[2-[[(4S)-4-carboxy-4-[[(4S)-4-carboxy-4-(17-carboxyheptadecanoylamino)butanoyl]amino]butanoyl]amino … (peptide)
peptide: H[Ac4c]QGTFTSDLSRYLESRRAREFVQWLLK([γGlu-γGlu-AEEA-AEEA-γGlu-γGlu-C18 diacid])T-NH2
modifications: N-terminus assumed
SMILES: CC(C)C[C@H](NC(=O)[C@H](Cc1ccc(O)cc1)NC(=O)[C@H](CCCNC(=N)N)NC(=O)[C@H](CO)NC(=O)[C@H](CC(C)C)NC(=O)[C@H](CC(=O)O)NC(=O)[C@H](CO)NC(=O)[C@@H](NC(=O)[C@H](Cc1ccccc1)NC(=O)[C@@H](NC(=O)CNC(=O)[C@H](CCC(N)=O)NC(=O)C1(NC(=O)[C@@H](N)Cc2c[nH]cn2)CCC1)[C@@H](C)O)[C@@H](C)O)C(=O)N[C@@H](CCC(=O)O)C(=O)N[C@@H](CO)C(=O)N[C@@H](CCCNC(=N)N)C(=O)N[C@@H](CCCNC(=N)N)C(=O)N[C@@H](C)C(=O)N[C@@H](CCCNC(=N)N)C(=O)N[C@@H](CCC(=O)O)C(=O)N[C@@H](Cc1ccccc1)C(=O)N[C@H](C(=O)N[C@@H](CCC(N)=O)C(=O)N[C@@H](Cc1c[nH]c2ccccc12)C(=O)N[C@@H](CC(C)C)C(=O)N[C@@H](CC(C)C)C(=O)N[C@@H](CCCCNC(=O)CC[C@H](NC(=O)CC[C@H](NC(=O)COCCOCCNC(=O)COCCOCCNC(=O)CC[C@H](NC(=O)CC[C@H](NC(=O)CCCCCCCCCCCCCCCCC(=O)O)C(=O)O)C(=O)O)C(=O)O)C(=O)O)C(=O)N[C@H](C(N)=O)[C@@H](C)O)C(C)C
B3: N^ε28-[(4S)-4-carboxy-4-[[(4S)-4-carboxy-4-[[2-[2-[2-[[2-[2-[2-[[(4S)-4-carboxy-4-[[(4S)-4-carboxy-4-(17-carboxyheptadecanoylamino)butanoyl]amino]butanoyl]amino … (peptide)
peptide: H[Ac4c]QGTFTSDLSRYLDLRRARDFVQWLLK([γGlu-γGlu-AEEA-AEEA-γGlu-γGlu-C18 diacid])T-NH2
modifications: N-terminus assumed
SMILES: CC(C)C[C@H](NC(=O)[C@H](CC(=O)O)NC(=O)[C@H](CC(C)C)NC(=O)[C@H](Cc1ccc(O)cc1)NC(=O)[C@H](CCCNC(=N)N)NC(=O)[C@H](CO)NC(=O)[C@H](CC(C)C)NC(=O)[C@H](CC(=O)O)NC(=O)[C@H](CO)NC(=O)[C@@H](NC(=O)[C@H](Cc1ccccc1)NC(=O)[C@@H](NC(=O)CNC(=O)[C@H](CCC(N)=O)NC(=O)C1(NC(=O)[C@@H](N)Cc2c[nH]cn2)CCC1)[C@@H](C)O)[C@@H](C)O)C(=O)N[C@@H](CCCNC(=N)N)C(=O)N[C@@H](CCCNC(=N)N)C(=O)N[C@@H](C)C(=O)N[C@@H](CCCNC(=N)N)C(=O)N[C@@H](CC(=O)O)C(=O)N[C@@H](Cc1ccccc1)C(=O)N[C@H](C(=O)N[C@@H](CCC(N)=O)C(=O)N[C@@H](Cc1c[nH]c2ccccc12)C(=O)N[C@@H](CC(C)C)C(=O)N[C@@H](CC(C)C)C(=O)N[C@@H](CCCCNC(=O)CC[C@H](NC(=O)CC[C@H](NC(=O)COCCOCCNC(=O)COCCOCCNC(=O)CC[C@H](NC(=O)CC[C@H](NC(=O)CCCCCCCCCCCCCCCCC(=O)O)C(=O)O)C(=O)O)C(=O)O)C(=O)O)C(=O)N[C@H](C(N)=O)[C@@H](C)O)C(C)C
B4: N^ε28-[(4S)-4-carboxy-4-[[(4S)-4-carboxy-4-[[2-[2-[2-[[2-[2-[2-[[(4S)-4-carboxy-4-(17-carboxyheptadecanoylamino)butanoyl]amino]ethoxy]ethoxy]acetyl]amino]ethoxy … (peptide)
peptide: H[Aib]QGTFTSDLSKYLDARRAREFVQWLLK([γGlu-γGlu-AEEA-AEEA-γGlu-C18 diacid])T-NH2
modifications: N-terminus assumed
SMILES: CC(C)C[C@H](NC(=O)[C@H](Cc1ccc(O)cc1)NC(=O)[C@H](CCCCN)NC(=O)[C@H](CO)NC(=O)[C@H](CC(C)C)NC(=O)[C@H](CC(=O)O)NC(=O)[C@H](CO)NC(=O)[C@@H](NC(=O)[C@H](Cc1ccccc1)NC(=O)[C@@H](NC(=O)CNC(=O)[C@H](CCC(N)=O)NC(=O)C(C)(C)NC(=O)[C@@H](N)Cc1c[nH]cn1)[C@@H](C)O)[C@@H](C)O)C(=O)N[C@@H](CC(=O)O)C(=O)N[C@@H](C)C(=O)N[C@@H](CCCNC(=N)N)C(=O)N[C@@H](CCCNC(=N)N)C(=O)N[C@@H](C)C(=O)N[C@@H](CCCNC(=N)N)C(=O)N[C@@H](CCC(=O)O)C(=O)N[C@@H](Cc1ccccc1)C(=O)N[C@H](C(=O)N[C@@H](CCC(N)=O)C(=O)N[C@@H](Cc1c[nH]c2ccccc12)C(=O)N[C@@H](CC(C)C)C(=O)N[C@@H](CC(C)C)C(=O)N[C@@H](CCCCNC(=O)CC[C@H](NC(=O)CC[C@H](NC(=O)COCCOCCNC(=O)COCCOCCNC(=O)CC[C@H](NC(=O)CCCCCCCCCCCCCCCCC(=O)O)C(=O)O)C(=O)O)C(=O)O)C(=O)N[C@H](C(N)=O)[C@@H](C)O)C(C)C
B5: N^ε28-[(4S)-4-carboxy-4-[[(4S)-4-carboxy-4-[[2-[2-[2-[[2-[2-[2-[[(4S)-4-carboxy-4-[[(4S)-4-carboxy-4-(17-carboxyheptadecanoylamino)butanoyl]amino]butanoyl]amino … (peptide)
peptide: H[Ac4c]QGTFTSDLSKYLDLRRARDFVQWLLK([γGlu-γGlu-AEEA-AEEA-γGlu-γGlu-C18 diacid])T-NH2
modifications: N-terminus assumed
SMILES: CC(C)C[C@H](NC(=O)[C@H](CC(=O)O)NC(=O)[C@H](CC(C)C)NC(=O)[C@H](Cc1ccc(O)cc1)NC(=O)[C@H](CCCCN)NC(=O)[C@H](CO)NC(=O)[C@H](CC(C)C)NC(=O)[C@H](CC(=O)O)NC(=O)[C@H](CO)NC(=O)[C@@H](NC(=O)[C@H](Cc1ccccc1)NC(=O)[C@@H](NC(=O)CNC(=O)[C@H](CCC(N)=O)NC(=O)C1(NC(=O)[C@@H](N)Cc2c[nH]cn2)CCC1)[C@@H](C)O)[C@@H](C)O)C(=O)N[C@@H](CCCNC(=N)N)C(=O)N[C@@H](CCCNC(=N)N)C(=O)N[C@@H](C)C(=O)N[C@@H](CCCNC(=N)N)C(=O)N[C@@H](CC(=O)O)C(=O)N[C@@H](Cc1ccccc1)C(=O)N[C@H](C(=O)N[C@@H](CCC(N)=O)C(=O)N[C@@H](Cc1c[nH]c2ccccc12)C(=O)N[C@@H](CC(C)C)C(=O)N[C@@H](CC(C)C)C(=O)N[C@@H](CCCCNC(=O)CC[C@H](NC(=O)CC[C@H](NC(=O)COCCOCCNC(=O)COCCOCCNC(=O)CC[C@H](NC(=O)CC[C@H](NC(=O)CCCCCCCCCCCCCCCCC(=O)O)C(=O)O)C(=O)O)C(=O)O)C(=O)O)C(=O)N[C@H](C(N)=O)[C@@H](C)O)C(C)C
B6: N^ε28-[(4S)-4-carboxy-4-[[(4S)-4-carboxy-4-[[2-[2-[2-[[2-[2-[2-[[(4S)-4-carboxy-4-[[(4S)-4-carboxy-4-(17-carboxyheptadecanoylamino)butanoyl]amino]butanoyl]amino … (peptide)
peptide: H[Ac4c]QGTFTSDLSKYLDLKRAREFVQWLLK([γGlu-γGlu-AEEA-AEEA-γGlu-γGlu-C18 diacid])T-NH2
modifications: N-terminus assumed
SMILES: CC(C)C[C@H](NC(=O)[C@H](CC(=O)O)NC(=O)[C@H](CC(C)C)NC(=O)[C@H](Cc1ccc(O)cc1)NC(=O)[C@H](CCCCN)NC(=O)[C@H](CO)NC(=O)[C@H](CC(C)C)NC(=O)[C@H](CC(=O)O)NC(=O)[C@H](CO)NC(=O)[C@@H](NC(=O)[C@H](Cc1ccccc1)NC(=O)[C@@H](NC(=O)CNC(=O)[C@H](CCC(N)=O)NC(=O)C1(NC(=O)[C@@H](N)Cc2c[nH]cn2)CCC1)[C@@H](C)O)[C@@H](C)O)C(=O)N[C@@H](CCCCN)C(=O)N[C@@H](CCCNC(=N)N)C(=O)N[C@@H](C)C(=O)N[C@@H](CCCNC(=N)N)C(=O)N[C@@H](CCC(=O)O)C(=O)N[C@@H](Cc1ccccc1)C(=O)N[C@H](C(=O)N[C@@H](CCC(N)=O)C(=O)N[C@@H](Cc1c[nH]c2ccccc12)C(=O)N[C@@H](CC(C)C)C(=O)N[C@@H](CC(C)C)C(=O)N[C@@H](CCCCNC(=O)CC[C@H](NC(=O)CC[C@H](NC(=O)COCCOCCNC(=O)COCCOCCNC(=O)CC[C@H](NC(=O)CC[C@H](NC(=O)CCCCCCCCCCCCCCCCC(=O)O)C(=O)O)C(=O)O)C(=O)O)C(=O)O)C(=O)N[C@H](C(N)=O)[C@@H](C)O)C(C)C

The binders below were run against T1, human GLP-1 receptor (human, UniProt P43220 24-463) (assay: displacement of 125I-GLP-1(7-36)NH2, membranes with human GLP-1R, SPA).
T1 construct: whole, on cells; the potency assay used whole cells (clone FCW467-12A/KZ10-1)
Experimental: (§1) The receptor binding of each compound to the human GLP-1 receptor was measured in a displacement binding assay. […] Each derivative was added in a series of concentrations to isolated membranes containing the human GLP-1 receptor and displacement of the labelled ligand was monitored. The receptor binding was reported as the concentration at which half of the labelled ligand was displaced from the receptor, the IC₅₀ value.

Binder | IC50
B1 | 200 pM
B2 | 200 pM
B3 | 1100 pM
B4 | 300 pM
B5 | 400 pM
B6 | 200 pM

The binders below were run against T2, human glucagon receptor (human, UniProt P47871 26-477) (assay: displacement of 125I-glucagon, membranes with human glucagon receptor, SPA).
T2 construct: whole, on cells; the potency assay used whole cells (clone pLJ6'-4-25); also called GlucR; hGCGR
T2 sequence (P47871 26-477): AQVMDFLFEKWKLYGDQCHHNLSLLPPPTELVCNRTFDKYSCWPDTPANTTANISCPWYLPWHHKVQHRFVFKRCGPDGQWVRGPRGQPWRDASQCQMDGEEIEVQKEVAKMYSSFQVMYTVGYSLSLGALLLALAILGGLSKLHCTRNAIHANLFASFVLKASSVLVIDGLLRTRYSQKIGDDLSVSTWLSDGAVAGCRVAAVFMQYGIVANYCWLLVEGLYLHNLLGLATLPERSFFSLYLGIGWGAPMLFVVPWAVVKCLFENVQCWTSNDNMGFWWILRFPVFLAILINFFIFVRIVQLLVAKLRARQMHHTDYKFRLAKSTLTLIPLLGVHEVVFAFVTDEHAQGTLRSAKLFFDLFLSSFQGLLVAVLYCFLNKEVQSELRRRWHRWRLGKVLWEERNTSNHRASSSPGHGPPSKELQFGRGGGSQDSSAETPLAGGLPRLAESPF
Experimental: as §1, with “human glucagon” for “human GLP-1”, “ligand is” for “ligand was”

Binder | IC50
B1 | 61000 pM
B2 | 1400 pM
B3 | 8500 pM
B4 | 5600 pM
B5 | 4500 pM
B6 | 1500 pM

The binders below were run against T1, human GLP-1 receptor (assay: cell-based or functional assay).

Binder | EC50 GLP-1R, CRE luciferase reporter gene assay in BHK cells
B1 | 11.9 pM
B2 | 4 pM
B3 | 21 pM
B4 | 5 pM
B5 | 18 pM
B6 | 17 pM

The binders below were run against T2, human glucagon receptor (assay: cell-based or functional assay).

Binder | EC50 GlucR, CRE luciferase reporter gene assay in BHK cells
B1 | 506 pM
B2 | 17 pM
B3 | 16 pM
B4 | 2 pM
B5 | 6 pM
B6 | 5 pM
